From patent publication EP2661444B1 (Complix SA, dated 2015)

Key:
[1] = target: T1, Biotinylated N51 (HIV-1 gp41 HR1-derived peptide, residues 540 to 590 of HIV-1 HXB2) (HIV-1 HXB2, N-terminal biotin); experiment: SPR (BIAcore), biotinylated N51 on streptavidin chip, 1:1 Langmuir fit
T1 construct: Immobilised through biotin on streptavidin; also called HIV-1 N51; biotinylated HIV-1 N51

[2] = target: T2, bL4_C36 (HIV-1 gp41 HR2-derived biotinylated peptide C36) (HIV-1 HXB2, N-terminal biotin; C-terminal amide); experiment: ELISA, biotinylated peptide on streptavidin, anti-His-HRP detection, apparent KD
T2 construct: also called gp41 C36 target peptide; control peptide C36
T2 peptide: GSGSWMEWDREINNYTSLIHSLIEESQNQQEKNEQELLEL

[3] = target: T1, Biotinylated N51 (HIV-1 gp41 …); experiment: ELISA, biotinylated peptide on streptavidin, anti-His-HRP detection, sigmoid fit, apparent KD
[4] = target: T2, bL4_C36 (HIV-1 gp41 HR2-derived …); experiment: as above

B1: Alphabody 'scAB013_C2' (designed binder)
chain: MSIEEIQKQIAAIQKQIAAIQKQIYRMTGGSSGGSMQMYTIQIQILIIQAQIQQIQNQIELMTLGGSSGGMSIEEIQKQIAAIQKQIAAIQKQIYRMTPLEHHHHHH
notes: Single-chain Alphabody that mimics gp41 HR2 (grafted B-helix), made in E. coli; also called wild type scAB013_C2
Kd [1]: 2.07 nM
koff [1]: 0.000209 s⁻¹
kon [1]: 101000 M⁻¹ s⁻¹
Kd [2]: > 10000 nM
Kd [3]: 18 nM

B2: Alphabody 'scAB_Env03' (designed binder)
chain: MGHHHHHHHHHHSSGHIEGRHMSIEEIQKPIATIQEAIAWIQKKIYMMTGGSGGGSGGGSGGGSGMSIEEIQKQIAAIQKQIAAIQKQIYAMTGGSGGGSGGGSGGGSGMSIEEIQKQIVAIMEQIVAIVKQISAMTP
notes: The tag of the construct tested is not described; also called scAB013_Env03
Kd [4]: 211 nM
